In article PMC9002095, “A SIRPαFc Fusion Protein Conjugated With the Collagen-Binding Domain for Targeted Immunotherapy of Non-Small Cell Lung Cancer” (Frontiers in Immunology, 2022):

Legend:
human CD47 = molecular target: T1, human CD47 (human, UniProt Q08722 19-323); experiment: SPR; Biacore T200; SIRPαFc or CBD–SIRPαFc caught on a CM5 chip activated by EDC-NHS; human CD47 in six concentrations flowed over; conditions: both partners purified
T1 construct: CD47, human, in solution as the analyte of Biacore
T1 sequence (Q08722 19-323): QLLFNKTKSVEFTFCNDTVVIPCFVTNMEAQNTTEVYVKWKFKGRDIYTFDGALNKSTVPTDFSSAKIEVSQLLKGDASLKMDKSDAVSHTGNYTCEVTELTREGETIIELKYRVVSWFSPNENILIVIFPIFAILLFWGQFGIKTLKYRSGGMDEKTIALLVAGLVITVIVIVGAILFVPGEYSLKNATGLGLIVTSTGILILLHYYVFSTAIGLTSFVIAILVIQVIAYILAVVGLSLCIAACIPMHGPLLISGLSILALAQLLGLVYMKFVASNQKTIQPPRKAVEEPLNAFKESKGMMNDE

collagen type I = molecular target: T2, collagen type I (UniProt P02454 152-1207; P02466 86-1125); experiment: ELISA; 96-well plate coated with 100 μg/ml collagen type I or 2% BSA at 4°C overnight, blocked with 2% BSA in PBS-T; SIRPαFc or CBD–SIRPαFc in five concentrations, 37°C, 2 h; detected with HRP anti-human IgG1 Fc antibody; KD by non-linear regression (one-site specific binding); conditions: both partners purified
T2 construct: collagen type I, alpha 1 chain; collagen type I, alpha 2 chain; also called collagen I; source: bought: Corning
T2 sequence (P02454 152-1207, chain 1 of 2): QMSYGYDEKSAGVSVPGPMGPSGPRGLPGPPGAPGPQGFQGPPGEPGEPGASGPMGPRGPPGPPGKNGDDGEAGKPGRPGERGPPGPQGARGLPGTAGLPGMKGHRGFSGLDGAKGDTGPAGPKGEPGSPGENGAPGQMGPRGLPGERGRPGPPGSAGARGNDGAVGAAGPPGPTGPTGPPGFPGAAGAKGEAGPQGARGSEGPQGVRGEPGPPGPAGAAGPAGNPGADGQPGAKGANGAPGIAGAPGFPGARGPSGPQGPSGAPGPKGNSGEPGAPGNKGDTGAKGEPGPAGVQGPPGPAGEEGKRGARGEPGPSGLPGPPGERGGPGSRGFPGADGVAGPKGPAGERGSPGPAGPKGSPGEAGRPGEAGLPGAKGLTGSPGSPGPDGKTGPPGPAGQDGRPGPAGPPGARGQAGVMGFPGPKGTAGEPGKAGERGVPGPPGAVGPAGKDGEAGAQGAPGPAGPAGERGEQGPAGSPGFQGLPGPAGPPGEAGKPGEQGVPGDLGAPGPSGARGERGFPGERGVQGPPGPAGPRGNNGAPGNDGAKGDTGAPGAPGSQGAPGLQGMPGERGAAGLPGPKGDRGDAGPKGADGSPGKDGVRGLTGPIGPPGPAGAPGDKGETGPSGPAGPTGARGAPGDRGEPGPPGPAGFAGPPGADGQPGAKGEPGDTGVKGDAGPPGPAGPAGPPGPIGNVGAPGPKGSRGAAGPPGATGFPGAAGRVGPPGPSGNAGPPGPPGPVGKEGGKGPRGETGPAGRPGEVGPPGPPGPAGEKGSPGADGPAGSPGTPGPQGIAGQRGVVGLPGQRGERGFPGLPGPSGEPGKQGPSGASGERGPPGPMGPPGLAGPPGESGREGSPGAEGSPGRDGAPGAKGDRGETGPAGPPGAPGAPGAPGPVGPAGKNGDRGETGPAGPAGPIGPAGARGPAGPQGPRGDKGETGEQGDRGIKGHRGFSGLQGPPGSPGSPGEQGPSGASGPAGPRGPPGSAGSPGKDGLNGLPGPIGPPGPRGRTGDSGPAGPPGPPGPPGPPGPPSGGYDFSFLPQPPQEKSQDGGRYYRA
T2 sequence (P02466 86-1125, chain 2 of 2): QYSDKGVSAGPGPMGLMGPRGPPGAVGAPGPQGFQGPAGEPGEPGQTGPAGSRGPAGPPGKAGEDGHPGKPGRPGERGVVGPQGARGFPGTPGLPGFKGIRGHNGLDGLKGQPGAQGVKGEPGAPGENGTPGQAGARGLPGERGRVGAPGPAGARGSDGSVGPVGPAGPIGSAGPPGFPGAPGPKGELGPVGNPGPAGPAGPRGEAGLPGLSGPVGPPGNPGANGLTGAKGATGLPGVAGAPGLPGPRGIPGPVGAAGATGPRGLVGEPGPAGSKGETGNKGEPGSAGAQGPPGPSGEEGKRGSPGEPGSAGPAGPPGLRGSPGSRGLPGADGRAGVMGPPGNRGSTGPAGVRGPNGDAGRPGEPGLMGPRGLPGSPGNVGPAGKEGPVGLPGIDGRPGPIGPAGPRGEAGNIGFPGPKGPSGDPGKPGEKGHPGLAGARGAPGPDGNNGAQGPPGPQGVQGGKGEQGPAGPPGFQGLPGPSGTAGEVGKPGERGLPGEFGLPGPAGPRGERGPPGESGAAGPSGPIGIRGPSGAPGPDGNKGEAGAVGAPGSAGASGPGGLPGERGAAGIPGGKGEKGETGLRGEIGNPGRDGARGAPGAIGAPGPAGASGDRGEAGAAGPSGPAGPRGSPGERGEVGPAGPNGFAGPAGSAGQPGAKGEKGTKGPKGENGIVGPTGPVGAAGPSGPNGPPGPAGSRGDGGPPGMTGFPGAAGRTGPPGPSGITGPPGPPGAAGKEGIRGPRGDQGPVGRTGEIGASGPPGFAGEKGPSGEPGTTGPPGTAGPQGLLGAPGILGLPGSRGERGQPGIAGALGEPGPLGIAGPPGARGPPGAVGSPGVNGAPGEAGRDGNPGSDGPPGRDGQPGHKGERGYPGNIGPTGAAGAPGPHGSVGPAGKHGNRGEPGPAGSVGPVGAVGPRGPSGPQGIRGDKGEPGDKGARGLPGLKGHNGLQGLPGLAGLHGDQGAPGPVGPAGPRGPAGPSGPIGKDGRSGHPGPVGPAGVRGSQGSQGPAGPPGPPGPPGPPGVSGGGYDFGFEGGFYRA

Binder	Kd (human CD47)	Kd (collagen type I)
TKKTLRT–SIRPαFc conjugate (Fc fusion, free amino groups joined through Sulfo-SMCC to the cysteine of the peptide TKKTLRTC; one or two peptides on one SIRPαFc (MALDI-TOF-MS); sites not told | sulfhydryl of the C-terminal cysteine joined to the maleimide group of Sulfo-SMCC) chain 1: EEELQVIQPDKSVLVAAGETATLRCTATSLIPVGPIQWFRGAGPGRELIYNQKEGHFPRVTTVSDLTKRNNMDFSIRIGNITPADAGTYYCVKFRKGSPDDVEFKSG chain 2: TKKTLRTC	1.44 nM	180 nM
human SIRPαFc fusion protein (Fc fusion) EEELQVIQPDKSVLVAAGETATLRCTATSLIPVGPIQWFRGAGPGRELIYNQKEGHFPRVTTVSDLTKRNNMDFSIRIGNITPADAGTYYCVKFRKGSPDDVEFKSG	3.3 nM	
